Assay results as given in PMC9482650, “Quantitative fragmentomics allow affinity mapping of interactomes” (Nature Communications, 2022).

How the values were obtained:
Experiment in all cases: holdup assay
Parameters in all cases: key: below the threshold = too weak to quantify, mostly under pKd 3.1 to 4
DLG1_2, Q12959 = biological target: DLG1_2, Q12959
FRMPD4, Q14CM0 = biological target: FRMPD4, Q14CM0
NOS1, P29475 = biological target: NOS1, P29475
GRIP1_7, Q9Y3R0 = biological target: T1, GRIP1_7, Q9Y3R0
T1 sequence (Q9Y3R0 999-1096, limits assumed, looked up): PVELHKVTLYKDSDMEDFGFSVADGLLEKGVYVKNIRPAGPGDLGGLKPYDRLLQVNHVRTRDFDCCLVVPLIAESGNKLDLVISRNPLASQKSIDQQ

DLG2_2, Q15700 = biological target: DLG2_2, Q15700
SNX27, Q96L92 = biological target: SNX27, Q96L92
Inadl_3, Q8NI35 = biological target: Inadl_3, Q8NI35
GIPC2, Q8TF65 = biological target: GIPC2, Q8TF65
LNX2_3, Q8N448 = biological target: T2, LNX2_3, Q8N448
T2 sequence (Q8N448 463-564, limits assumed, looked up): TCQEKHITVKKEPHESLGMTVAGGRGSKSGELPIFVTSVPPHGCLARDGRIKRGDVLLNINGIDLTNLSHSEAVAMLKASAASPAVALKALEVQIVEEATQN

PICK1, Q9NRD5 = biological target: PICK1, Q9NRD5
PARD3_3, Q8TEW0 = biological target: PARD3_3, Q8TEW0
DLG1_3, Q12959 = biological target: DLG1_3, Q12959
SNTA1, Q13424 = biological target: T3, SNTA1, Q13424
T3 sequence (Q13424 82-180, limits assumed, looked up): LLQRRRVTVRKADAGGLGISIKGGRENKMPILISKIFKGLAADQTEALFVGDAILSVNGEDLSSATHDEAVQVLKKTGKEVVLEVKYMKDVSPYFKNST

RADIL, Q96JH8 = biological target: T4, RADIL, Q96JH8
T4 sequence (Q96JH8 971-1071, limits assumed, looked up): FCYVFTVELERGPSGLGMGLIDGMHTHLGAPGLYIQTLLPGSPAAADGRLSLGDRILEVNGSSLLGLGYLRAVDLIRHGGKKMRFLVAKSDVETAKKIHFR

PDZD2_2, O15018 = biological target: T5, PDZD2_2, O15018
T5 sequence (O15018 329-429, limits assumed, looked up): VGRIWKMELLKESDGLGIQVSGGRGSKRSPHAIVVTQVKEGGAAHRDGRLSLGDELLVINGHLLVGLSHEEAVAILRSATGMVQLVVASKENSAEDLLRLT

GRIP1_2, Q9Y3R0 = biological target: T6, GRIP1_2, Q9Y3R0
T6 sequence (Q9Y3R0 145-248, limits assumed, looked up): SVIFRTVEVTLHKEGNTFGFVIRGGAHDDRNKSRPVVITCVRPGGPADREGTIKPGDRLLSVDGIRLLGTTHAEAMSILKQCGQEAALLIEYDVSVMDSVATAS

GRASP, Q7Z6J2 = biological target: GRASP, Q7Z6J2
LIMK2, P53671 = biological target: LIMK2, P53671
GRIP2_7, Q9C0E4 = biological target: GRIP2_7, Q9C0E4
FRMPD2_1, Q68DX3 = biological target: FRMPD2_1, Q68DX3
MPDZ_12, O75970 = biological target: T7, MPDZ_12, O75970
T7 sequence (O75970 1857-1958, limits assumed, looked up): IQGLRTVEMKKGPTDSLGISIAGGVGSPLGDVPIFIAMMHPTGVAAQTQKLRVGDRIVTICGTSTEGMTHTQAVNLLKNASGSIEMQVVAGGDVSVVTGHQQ

Inadl_1, Q8NI35 = biological target: Inadl_1, Q8NI35
SHANK1, Q9Y566 = biological target: T8, SHANK1, Q9Y566
T8 sequence (Q9Y566 658-767, limits assumed, looked up): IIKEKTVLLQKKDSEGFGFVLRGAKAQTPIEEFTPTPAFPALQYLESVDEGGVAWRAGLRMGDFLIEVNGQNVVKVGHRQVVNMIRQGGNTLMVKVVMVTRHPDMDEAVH

DLG4_2, P78352 = biological target: DLG4_2, P78352
APBA3_1, O96018 = biological target: T9, APBA3_1, O96018
T9 sequence (O96018 389-490, limits assumed, looked up): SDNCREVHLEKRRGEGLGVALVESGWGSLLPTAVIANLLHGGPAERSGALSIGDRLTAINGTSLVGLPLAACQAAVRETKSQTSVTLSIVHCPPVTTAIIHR

LRRC7, Q96NW7 = biological target: T10, LRRC7, Q96NW7
T10 sequence (Q96NW7 1440-1537, limits assumed, looked up): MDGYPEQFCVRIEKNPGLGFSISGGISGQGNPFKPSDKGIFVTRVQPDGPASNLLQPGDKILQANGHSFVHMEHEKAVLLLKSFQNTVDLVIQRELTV

GRIP2_6, Q9C0E4 = biological target: GRIP2_6, Q9C0E4
DLG1_1, Q12959 = biological target: DLG1_1, Q12959
[1] = plain residues with an end cap or a label only (N-terminal biotin on a linker: ttds)
[2] = plain residues with an end cap or a label only (N-terminal biotin on a linker: ahx)

Chain of DLG2_2, Q15700 (Q15700 189-283): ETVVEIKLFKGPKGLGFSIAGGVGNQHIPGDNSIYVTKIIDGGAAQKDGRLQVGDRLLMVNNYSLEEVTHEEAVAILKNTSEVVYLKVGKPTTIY
Chain of LIMK2, P53671 (P53671 143-248): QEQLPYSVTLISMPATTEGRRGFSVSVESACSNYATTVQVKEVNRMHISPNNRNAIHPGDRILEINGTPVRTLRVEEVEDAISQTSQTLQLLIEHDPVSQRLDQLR
Chain of GIPC2, Q8TF65 (Q8TF65 112-203): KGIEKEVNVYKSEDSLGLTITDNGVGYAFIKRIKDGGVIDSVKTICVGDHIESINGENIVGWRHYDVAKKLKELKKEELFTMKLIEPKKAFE
Chain of FRMPD2_1, Q68DX3 (Q68DX3 770-861): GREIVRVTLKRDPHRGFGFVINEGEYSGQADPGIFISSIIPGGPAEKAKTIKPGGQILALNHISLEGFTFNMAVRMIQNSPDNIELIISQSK
Chain of GRASP, Q7Z6J2 (Q7Z6J2 96-193): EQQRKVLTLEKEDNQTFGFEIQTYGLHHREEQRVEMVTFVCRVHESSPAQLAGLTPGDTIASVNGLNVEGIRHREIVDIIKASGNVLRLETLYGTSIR
Chain of Inadl_1, Q8NI35 (Q8NI35 113-229): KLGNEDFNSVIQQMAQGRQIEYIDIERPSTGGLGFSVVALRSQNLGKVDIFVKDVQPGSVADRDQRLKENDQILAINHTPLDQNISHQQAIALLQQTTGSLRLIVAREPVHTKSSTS
Chain of FRMPD4, Q14CM0 (Q14CM0 67-160): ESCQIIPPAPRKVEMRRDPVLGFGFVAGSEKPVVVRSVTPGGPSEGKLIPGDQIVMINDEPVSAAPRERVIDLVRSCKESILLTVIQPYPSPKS
Chain of PICK1, Q9NRD5 (Q9NRD5 17-115): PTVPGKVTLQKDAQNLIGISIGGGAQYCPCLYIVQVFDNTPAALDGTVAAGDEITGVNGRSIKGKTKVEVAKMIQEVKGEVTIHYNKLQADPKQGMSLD
Chain of NOS1, P29475 (P29475 9-101): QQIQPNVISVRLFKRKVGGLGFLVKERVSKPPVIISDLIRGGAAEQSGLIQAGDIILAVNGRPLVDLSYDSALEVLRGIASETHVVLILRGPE
Chain of DLG4_2, P78352 (P78352 155-259): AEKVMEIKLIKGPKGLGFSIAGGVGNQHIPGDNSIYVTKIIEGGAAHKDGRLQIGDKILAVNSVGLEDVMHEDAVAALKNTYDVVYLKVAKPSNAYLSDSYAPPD
Chain of Inadl_3, Q8NI35 (Q8NI35 359-469): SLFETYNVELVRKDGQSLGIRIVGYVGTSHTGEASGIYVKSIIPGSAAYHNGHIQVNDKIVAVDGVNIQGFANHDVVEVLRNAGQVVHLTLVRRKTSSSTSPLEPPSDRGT
Chain of PARD3_3, Q8TEW0 (Q8TEW0 582-685): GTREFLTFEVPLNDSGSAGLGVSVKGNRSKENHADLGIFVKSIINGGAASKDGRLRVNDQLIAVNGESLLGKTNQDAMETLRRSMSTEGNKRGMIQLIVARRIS
Chain of GRIP2_6, Q9C0E4 (Q9C0E4 648-740): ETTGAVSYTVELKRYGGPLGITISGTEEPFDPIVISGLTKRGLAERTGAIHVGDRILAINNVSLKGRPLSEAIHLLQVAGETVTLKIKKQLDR
Chain of GRIP2_7, Q9C0E4 (Q9C0E4 934-1023): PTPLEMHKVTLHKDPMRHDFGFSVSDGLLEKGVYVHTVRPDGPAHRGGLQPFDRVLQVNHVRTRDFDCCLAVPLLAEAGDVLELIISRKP

QSARYRDTEL [TJP2, Q9UDY2]
pKd (DLG1_2, Q12959; [1]): 3.77 | pKd (FRMPD4, Q14CM0; [1]): 4.35 | pKd (NOS1, P29475; [1]): 3.75 | pKd (GRIP1_7, Q9Y3R0; [1]): 3.82 | pKd (DLG2_2, Q15700; [1]): 3.61 | pKd (SNX27, Q96L92; [1]): 4.69 | pKd (Inadl_3, Q8NI35; [1]): below the threshold | pKd (GIPC2, Q8TF65; [1]): below the threshold | pKd (LNX2_3, Q8N448; [1]): 3.53 | pKd (PICK1, Q9NRD5; [1]): below the threshold | pKd (PARD3_3, Q8TEW0; [1]): 3.7 | pKd (DLG1_3, Q12959; [1]): 3.83 | pKd (SNTA1, Q13424; [1]): 4.38 | pKd (RADIL, Q96JH8; [1]): below the threshold | pKd (PDZD2_2, O15018; [1]): below the threshold | pKd (GRIP1_2, Q9Y3R0; [1]): below the threshold | pKd (GRASP, Q7Z6J2; [1]): below the threshold | pKd (LIMK2, P53671; [1]): below the threshold | pKd (GRIP2_7, Q9C0E4; [1]): 3.49 | pKd (FRMPD2_1, Q68DX3; [1]): below the threshold | pKd (MPDZ_12, O75970; [1]): below the threshold | pKd (Inadl_1, Q8NI35; [1]): below the threshold | pKd (SHANK1, Q9Y566; [1]): 3.74 | pKd (DLG4_2, P78352; [1]): 3.83 | pKd (APBA3_1, O96018; [1]): below the threshold | pKd (LRRC7, Q96NW7; [1]): 3.86 | pKd (GRIP2_6, Q9C0E4; [1]): below the threshold | pKd (DLG1_1, Q12959; [1]): 3.68

IDNDTESTAL [ARHGAP17, Q68EM7]
pKd (DLG1_2, Q12959; [1]): below the threshold | pKd (FRMPD4, Q14CM0; [1]): 4.45 | pKd (NOS1, P29475; [1]): 3.95 | pKd (GRIP1_7, Q9Y3R0; [1]): 3.51 | pKd (DLG2_2, Q15700; [1]): below the threshold | pKd (SNX27, Q96L92; [1]): 4.97 | pKd (Inadl_3, Q8NI35; [1]): below the threshold | pKd (GIPC2, Q8TF65; [1]): below the threshold | pKd (LNX2_3, Q8N448; [1]): below the threshold | pKd (PICK1, Q9NRD5; [1]): below the threshold | pKd (PARD3_3, Q8TEW0; [1]): below the threshold | pKd (DLG1_3, Q12959; [1]): below the threshold | pKd (SNTA1, Q13424; [1]): 3.73 | pKd (RADIL, Q96JH8; [1]): below the threshold | pKd (PDZD2_2, O15018; [1]): 4.11 | pKd (GRIP1_2, Q9Y3R0; [1]): below the threshold | pKd (GRASP, Q7Z6J2; [1]): 4.77 | pKd (LIMK2, P53671; [1]): below the threshold | pKd (GRIP2_7, Q9C0E4; [1]): below the threshold | pKd (FRMPD2_1, Q68DX3; [1]): below the threshold | pKd (MPDZ_12, O75970; [1]): below the threshold | pKd (Inadl_1, Q8NI35; [1]): below the threshold | pKd (SHANK1, Q9Y566; [1]): 5.53 | pKd (DLG4_2, P78352; [1]): below the threshold | pKd (APBA3_1, O96018; [1]): below the threshold | pKd (LRRC7, Q96NW7; [1]): below the threshold | pKd (GRIP2_6, Q9C0E4; [1]): below the threshold | pKd (DLG1_1, Q12959; [1]): below the threshold

GQDSREETQL [KCNT2, Q6UVM3]
pKd (DLG1_2, Q12959; [1]): 4.2 | pKd (FRMPD4, Q14CM0; [1]): 4.48 | pKd (NOS1, P29475; [1]): 4.05 | pKd (GRIP1_7, Q9Y3R0; [1]): below the threshold | pKd (DLG2_2, Q15700; [1]): 4.47 | pKd (SNX27, Q96L92; [1]): 5.27 | pKd (Inadl_3, Q8NI35; [1]): below the threshold | pKd (GIPC2, Q8TF65; [1]): 3.79 | pKd (LNX2_3, Q8N448; [1]): below the threshold | pKd (PICK1, Q9NRD5; [1]): below the threshold | pKd (PARD3_3, Q8TEW0; [1]): 4.04 | pKd (DLG1_3, Q12959; [1]): below the threshold | pKd (SNTA1, Q13424; [1]): 4.06 | pKd (RADIL, Q96JH8; [1]): below the threshold | pKd (PDZD2_2, O15018; [1]): below the threshold | pKd (GRIP1_2, Q9Y3R0; [1]): below the threshold | pKd (GRASP, Q7Z6J2; [1]): below the threshold | pKd (LIMK2, P53671; [1]): below the threshold | pKd (GRIP2_7, Q9C0E4; [1]): below the threshold | pKd (FRMPD2_1, Q68DX3; [1]): below the threshold | pKd (MPDZ_12, O75970; [1]): below the threshold | pKd (Inadl_1, Q8NI35; [1]): below the threshold | pKd (SHANK1, Q9Y566; [1]): 4.67 | pKd (DLG4_2, P78352; [1]): 3.62 | pKd (APBA3_1, O96018; [1]): below the threshold | pKd (LRRC7, Q96NW7; [1]): below the threshold | pKd (GRIP2_6, Q9C0E4; [1]): below the threshold | pKd (DLG1_1, Q12959; [1]): below the threshold

TEAKLTETNA [MYO18A, Q92614]
pKd (DLG1_2, Q12959; [2]): below the threshold | pKd (FRMPD4, Q14CM0; [2]): below the threshold | pKd (NOS1, P29475; [2]): below the threshold | pKd (GRIP1_7, Q9Y3R0; [2]): below the threshold | pKd (DLG2_2, Q15700; [2]): below the threshold | pKd (SNX27, Q96L92; [2]): below the threshold | pKd (Inadl_3, Q8NI35; [2]): below the threshold | pKd (GIPC2, Q8TF65; [2]): below the threshold | pKd (LNX2_3, Q8N448; [2]): below the threshold | pKd (PICK1, Q9NRD5; [2]): below the threshold | pKd (PARD3_3, Q8TEW0; [2]): below the threshold | pKd (DLG1_3, Q12959; [2]): below the threshold | pKd (SNTA1, Q13424; [2]): below the threshold | pKd (RADIL, Q96JH8; [2]): below the threshold | pKd (PDZD2_2, O15018; [2]): below the threshold | pKd (GRIP1_2, Q9Y3R0; [2]): below the threshold | pKd (GRASP, Q7Z6J2; [2]): below the threshold | pKd (LIMK2, P53671; [2]): below the threshold | pKd (GRIP2_7, Q9C0E4; [2]): below the threshold | pKd (FRMPD2_1, Q68DX3; [2]): below the threshold | pKd (MPDZ_12, O75970; [2]): below the threshold | pKd (Inadl_1, Q8NI35; [2]): below the threshold | pKd (SHANK1, Q9Y566; [2]): below the threshold | pKd (DLG4_2, P78352; [2]): below the threshold | pKd (APBA3_1, O96018; [2]): below the threshold | pKd (LRRC7, Q96NW7; [2]): below the threshold | pKd (GRIP2_6, Q9C0E4; [2]): below the threshold | pKd (DLG1_1, Q12959; [2]): below the threshold
